Series [1] deals with tester strains (histidine (his) biosynthetic operon mutants). Kind of series: Ames reverse mutation assay. The format is cell-based. The conditions noted are these: any of the tested doses. An excerpt: The Ames reverse mutation Assay is another common toxicology assay for assessing the toxicity of a compound. The Ames Assay, utilizes several different tester strains, each with a distinct mutation in one of the genes comprising the histidine (his) biosynthetic operon (Ames, B. N., et al., (1975) Mutation Res. 31:347-363). […] The Ames Assay is capable of detecting several different types of mutations (genetic damage) that may occur in one or more of the tester strains. The practice of using an in vitro bacterial assay to evaluate the genotoxic activity of drug candidates is based on the prediction that a substance that is mutagenic in a bacterium is likely to be carcinogenic in laboratory animals, and by extension may be carcinogenic or mutagenic to humans.
(§1) Further safety pharmacology was assessed in vitro using the human ether-a-go-go related gene (hERG) assay for determining possible cardio-toxic effects.

Series [2] can be described thus: mortality in dog animal model. The format is in vivo. As to conditions: any tested dose. From the text: (§2) Other methods of assessing the toxicity of compounds include in vivo studies which administer relatively large doses of a test compound to a group of animals to determine the level which is lethal to a percentage of the population (mean lethal dose LD50 or mean lethal concentration LC50). Toxicity of a compound can also be assessed in vivo by examining whether a compound produces statistically significant negative effects on cardiac, blood pressure, central nervous system (CNS), body weight, food intake, gross or microscopic pathology, clinical pathology, or respiratory measures in an animal.
(§3) Furthermore, toxicology of the composition of formula III was also investigated in non-clinical in vivo studies in both rats and dogs.

A short description of series [3]: stability in human plasma (in vitro metabolic stability studies). The format is in vitro ADME. On the procedure:
(§4) For example, determination of metabolic stability is commonly examined when assessing the toxicity of a compound as it is one of several major determinates in defining the oral bioavailability and systemic clearance of a compound. After a compound is administered orally, it first encounters metabolic enzymes in the gastrointestinal lumen as well as in the intestinal epithelium. After it is absorbed into the bloodstream through the intestinal epithelium, it is first delivered to the liver via the portal vein. A compound can be effectively cleared by intestinal or hepatic metabolism before it reaches systemic circulation, a process known as first pass metabolism. The stability of a compound towards metabolism within the liver as well as extrahepatic tissues will ultimately determine the concentration of the compound found in the systemic circulation and affect its half-life and residence time within the body. Cytochrome P450 (CYP) enzymes are found primarily in the liver but also in the intestinal wall, lungs, kidneys and other extrahepatic organs and are the major enzymes involved in compound metabolism. Many compounds undergo deactivation by CYPs, either directly or by facilitated excretion from the body. […]
as §1

The conditions of series [4]: in vivo.
Text: as §2, §3

The nature of series [5]: stability in dog plasma (in vitro metabolic stability studies). The format is in vitro ADME. On the procedure: as §4, §1
The test system of series [6] is 9 major CYP liver enzymes. The series can be described thus: reactivity to CYP liver enzymes. The format is in vitro ADME. As to conditions: in vitro. The method, then:
as §4, §1

Series [7] is described as follows: stability in rat plasma (in vitro metabolic stability studies). The format is in vitro ADME. On the procedure: as §4, §1
Series [8] can be described thus: mortality in pig animal model. The format is in vivo. As to conditions: any tested dose.
Text: as §2, §3

The nature of series [9]: mortality in rat animal model. The format is in vivo. The conditions noted are these: any tested dose.
Text: as §2, §3

Series [10] can be described thus: in vitro metabolic stability: breakdown into metabolites. The format is in vitro ADME. On the procedure:
as §4, §1

The structures appear in SMILES notation.

For the molecule `CC1(C)C(/C=C/C2=C(Oc3ccc(S(=O)(=O)O)cc3)C(=C/C=C3/N(CCCS(=O)(=O)O)c4ccccc4C3(C)CCCC(=O)NCCCCC(NC(=O)CCCCCCC(=O)NCCCC[C@H](NC(=O)N[C@@H](CCC(=O)O)C(=O)O)C(=O)O)C(=O)O)/CCC2)=[N+](CCCS(=O)(=O)[O-])c2ccccc21` (stereo partly drawn) [formula III], in series [1], the mutagenicity result is recorded as “does not show any mutagenicity”. Further, the mortality result in [2], in series [8] and in series [9] was “No mortality” throughout. Besides, the stability in plasma entry in [3], in [5] and in series [7] was “stable” each time. For the same molecule, in series [4] (dog), the “effects on body weight, food intake, gross or microscopic pathology and clinical pathology” value was “no significant effects”. Besides, in [4] (dog), the “effects on cardiac, blood pressure or respiratory measures” value is on record as “no statistically significant negative effects”. Further, the “effects on the central nervous system (CNS)” value in [4] (rat) is “no biologically meaningful effects”. The “reactivity to CYP liver enzymes” value in [6] was “does not show any significant reactivity”. Also, in series [10], the breakdown into metabolites entry is on record as “does not appear to be broken down into metabolites”.

Source of the values: patent publication US11857645B2, “Compositions of near IR closed chain, sulfo-cyanine dyes and prostate specific membrane antigen ligands” (priority 2016, dated 2024).
